Reference: US20260266848A1, “COMPOSITIONS AND METHODS FOR DIAGNOSING AND TREATING DYSTONIA” (Duke University, priority 2023, published 2026)

System: DYT1 patient plasma derived EVs
Assay: Plasma-derived EV proteomics (ExoQuick ULTRA, DIA LC/MS/MS), DYT1 vs Healthy Controls
Set-up: species or system human
Conditions: Hs. Plasma EVs (DYT1/WT); significance of genotype difference
Experimental: Data was obtained for extracellular vesicles using previously acquired samples. The ExoQuick® ULTRA EV Isolation System was used to fractionate and enrich EVs from plasma. Isolated plasma EV samples were then submitted to proteomic analysis by the Duke Proteomics and Metabolomics Core Facility (DPMCF). At the DPMCF, quantitative (LC/MS/MS) was performed on 500 ng of each sample, using an EvoSep One UPLC system coupled to a Thermo Orbitrap Astral high-resolution accurate mass tandem mass spectrometer (Thermo). Briefly, the sample was eluted directly from an Evotip which was subjected to a low organic wash and then subjected to an analytical separation using a 1.7 μm EvoSep 150 um ID×15 cm endurance (EveoSep) column running an SPD30 gradient from approximately 5 to 30% acetonitrile with 0.1% formic acid with a column temperature of 50 C. Data collection on the Orbitrap Astral mass spectrometer was performed in a data-independent acquisition (DIA) mode of acquisition with a r=240,000 (@m/z 200) full MS scan from m/z 380-980 with a target AGC value of 4e5 ions. Fixed DIA, windows of 4 m/z from m/z 380 to 980 DIA MS/MS scans were acquired in the Astral with a target AGC value of 5e4 and a max fill time of 6 ms. HCD collision energy setting of 27% was used for all MS2 scans.

B1: MRC2 (protein, UniProt Q9UBG0 31-1479, looked up)
C-type mannose receptor 2: GAPGDAALPEPNVFLIFSHGLQGCLEAQGGQVRVTPACNTSLPAQRWKWVSRNRLFNLGTMQCLGTGWPGTNTTASLGMYECDREALNLRWHCRTLGDQLSLLLGARTSNISKPGTLERGDQTRSGQWRIYGSEEDLCALPYHEVYTIQGNSHGKPCTIPFKYDNQWFHGCTSTGREDGHLWCATTQDYGKDERWGFCPIKSNDCETFWDKDQLTDSCYQFNFQSTLSWREAWASCEQQGADLLSITEIHEQTYINGLLTGYSSTLWIGLNDLDTSGGWQWSDNSPLKYLNWESDQPDNPSEENCGVIRTESSGGWQNRDCSIALPYVCKKKPNATAEPTPPDRWANVKVECEPSWQPFQGHCYRLQAEKRSWQESKKACLRGGGDLVSIHSMAELEFITKQIKQEVEELWIGLNDLKLQMNFEWSDGSLVSFTHWHPFEPNNFRDSLEDCVTIWGPEGRWNDSPCNQSLPSICKKAGQLSQGAAEEDHGCRKGWTWHSPSCYWLGEDQVTYSEARRLCTDHGSQLVTITNRFEQAFVSSLIYNWEGEYFWTALQDLNSTGSFFWLSGDEVMYTHWNRDQPGYSRGGCVALATGSAMGLWEVKNCTSFRARYICRQSLGTPVTPELPGPDPTPSLTGSCPQGWASDTKLRYCYKVFSSERLQDKKSWVQAQGACQELGAQLLSLASYEEEHFVANMLNKIFGESEPEIHEQHWFWIGLNRRDPRGGQSWRWSDGVGFSYHNFDRSRHDDDDIRGCAVLDLASLQWVAMQCDTQLDWICKIPRGTDVREPDDSPQGRREWLRFQEAEYKFFEHHSTWAQAQRICTWFQAELTSVHSQAELDFLSHNLQKFSRAQEQHWWIGLHTSESDGRFRWTDGSIINFISWAPGKPRPVGKDKKCVYMTASREDWGDQRCLTALPYICKRSNVTKETQPPDLPTTALGGCPSDWIQFLNKCFQVQGQEPQSRVKWSEAQFSCEQQEAQLVTITNPLEQAFITASLPNVTFDLWIGLHASQRDFQWVEQEPLMYANWAPGEPSGPSPAPSGNKPTSCAVVLHSPSAHFTGRWDDRSCTEETHGFICQKGTDPSLSPSPAALPPAPGTELSYLNGTFRLLQKPLRWHDALLLCESRNASLAYVPDPYTQAFLTQAARGLRTPLWIGLAGEEGSRRYSWVSEEPLNYVGWQDGEPQQPGGCTYVDVDGAWRTTSCDTKLQGAVCGVSSGPPPPRRISYHGSCPQGLADSAWIPFREHCYSFHMELLLGHKEARQRCQRAGGAVLSILDEMENVFVWEHLQSYEGQSRGAWLGMNFNPKGGTLVWQDNTAVNYSNWGPPGLGPSMLSHNSCYWIQSNSGLWRPGACTNITMGVVCKLPRAEQSSFSPSALPENPAALVVVLMAVLLLLALLTAALILYRRRQSIERGAFEGARYSRSSSSPTEATEKNILVSDMEMNEQQE
**Q.** B1 was tested. Which “-LogP” value did it give?
**A.** The value was 1.456.

B2: SLC2A1 (protein, UniProt P11166 1-492, looked up)
Solute carrier family 2, …: MEPSSKKLTGRLMLAVGGAVLGSLQFGYNTGVINAPQKVIEEFYNQTWVHRYGESILPTTLTTLWSLSVAIFSVGGMIGSFSVGLFVNRFGRRNSMLMMNLLAFVSAVLMGFSKLGKSFEMLILGRFIIGVYCGLTTGFVPMYVGEVSPTALRGALGTLHQLGIVVGILIAQVFGLDSIMGNKDLWPLLLSIIFIPALLQCIVLPFCPESPRFLLINRNEENRAKSVLKKLRGTADVTHDLQEMKEESRQMMREKKVTILELFRSPAYRQPILIAVVLQLSQQLSGINAVFYYSTSIFEKAGVQQPVYATIGSGIVNTAFTVVSLFVVERAGRRTLHLIGLAGMAGCAILMTIALALLEQLPWMSYLSIVAIFGFVAFFEVGPGPIPWFIVAELFSQGPRPAAIAVAGFSNWTSNFIVGMCFQYVEQLCGPYVFIIFTVLLVLFFIFTYFKVPETKGRTFDEIASGFRQGGASQSDKTPEELFHPLGADSQV
**Q.** Which “-LogP” value does the source give for B2 here?
**A.** Its value is 1.635.

B3: BZW2 (protein, UniProt Q9Y6E2 1-419, looked up)
eIF5-mimic protein 1: MNKHQKPVLTGQRFKTRKRDEKEKFEPTVFRDTLVQGLNEAGDDLEAVAKFLDSTGSRLDYRRYADTLFDILVAGSMLAPGGTRIDDGDKTKMTNHCVFSANEDHETIRNYAQVFNKLIRRYKYLEKAFEDEMKKLLLFLKAFSETEQTKLAMLSGILLGNGTLPATILTSLFTDSLVKEGIAASFAVKLFKAWMAEKDANSVTSSLRKANLDKRLLELFPVNRQSVDHFAKYFTDAGLKELSDFLRVQQSLGTRKELQKELQERLSQECPIKEVVLYVKEEMKRNDLPETAVIGLLWTCIMNAVEWNKKEELVAEQALKHLKQYAPLLAVFSSQGQSELILLQKVQEYCYDNIHFMKAFQKIVVLFYKADVLSEEAILKWYKEAHVAKGKSVFLDQMKKFVEWLQNAEEESESEGEEN
**Q.** B3 was tested. Which “-LogP” value did it give?
**A.** Its value is 1.385.

B4: LRRC59 (protein, UniProt Q96AG4 1-307, looked up)
Leucine-rich …: MTKAGSKGGNLRDKLDGNELDLSLSDLNEVPVKELAALPKATILDLSCNKLTTLPSDFCGLTHLVKLDLSKNKLQQLPADFGRLVNLQHLDLLNNKLVTLPVSFAQLKNLKWLDLKDNPLDPVLAKVAGDCLDEKQCKQCANKVLQHMKAVQADQERERQRRLEVEREAEKKREAKQRAKEAQERELRKREKAEEKERRRKEYDALKAAKREQEKKPKKEANQAPKSKSGSRPRKPPPRKHTRSWAVLKLLLLLLLFGVAGGLVACRVTELQQQPLCTSVNTIYDNAVQGLRRHEILQWVLQTDSQQ
**Q.** With B4 as the molecule, how does the “-LogP” value read?
**A.** The value was 1.584.

B5: ACAA1 (protein, UniProt P09110 27-424, looked up)
3-ketoacyl-CoA thiolase, …: LSGAPQASAADVVVVHGRRTAICRAGRGGFKDTTPDELLSAVMTAVLKDVNLRPEQLGDICVGNVLQPGAGAIMARIAQFLSDIPETVPLSTVNRQCSSGLQAVASIAGGIRNGSYDIGMACGVESMSLADRGNPGNITSRLMEKEKARDCLIPMGITSENVAERFGISREKQDTFALASQQKAARAQSKGCFQAEIVPVTTTVHDDKGTKRSITVTQDEGIRPSTTMEGLAKLKPAFKKDGSTTAGNSSQVSDGAAAILLARRSKAEELGLPILGVLRSYAVVGVPPDIMGIGPAYAIPVALQKAGLTVSDVDIFEINEAFASQAAYCVEKLRLPPEKVNPLGGAVALGHPLGCTGARQVITLLNELKRRGKRAYGVVSMCIGTGMGAAAVFEYPGN
**Q.** With B5 as the molecule, how does the “-LogP” value read?
**A.** Its value is 1.434.

B6: PSMD12 (protein, UniProt O00232 2-456, looked up)
26S proteasome non-ATPase …: ADGGSERADGRIVKMEVDYSATVDQRLPECAKLAKEGRLQEVIETLLSLEKQTRTASDMVSTSRILVAVVKMCYEAKEWDLLNENIMLLSKRRSQLKQAVAKMVQQCCTYVEEITDLPIKLRLIDTLRMVTEGKIYVEIERARLTKTLATIKEQNGDVKEAASILQELQVETYGSMEKKERVEFILEQMRLCLAVKDYIRTQIISKKINTKFFQEENTEKLKLKYYNLMIQLDQHEGSYLSICKHYRAIYDTPCIQAESEKWQQALKSVVLYVILAPFDNEQSDLVHRISGDKKLEEIPKYKDLLKLFTTMELMRWSTLVEDYGMELRKGSLESPATDVFGSTEEGEKRWKDLKNRVVEHNIRIMAKYYTRITMKRMAQLLDLSVDESEAFLSNLVVNKTIFAKVDRLAGIINFQRPKDPNNLLNDWSQKLNSLMSLVNKTTHLIAKEEMIHNLQ
**Q.** B6 was tested. Which “-LogP” value did it give?
**A.** Its value is 1.461.

B7: MARS1 (protein, UniProt P56192 1-900, looked up)
Methionine--tRNA ligase, …: MRLFVSDGVPGCLPVLAAAGRARGRAEVLISTVGPEDCVVPFLTRPKVPVLQLDSGNYLFSTSAICRYFFLLSGWEQDDLTNQWLEWEATELQPALSAALYYLVVQGKKGEDVLGSVRRALTHIDHSLSRQNCPFLAGETESLADIVLWGALYPLLQDPAYLPEELSALHSWFQTLSTQEPCQRAAETVLKQQGVLALRPYLQKQPQPSPAEGRAVTNEPEEEELATLSEEEIAMAVTAWEKGLESLPPLRPQQNPVLPVAGERNVLITSALPYVNNVPHLGNIIGCVLSADVFARYSRLRQWNTLYLCGTDEYGTATETKALEEGLTPQEICDKYHIIHADIYRWFNISFDIFGRTTTPQQTKITQDIFQQLLKRGFVLQDTVEQLRCEHCARFLADRFVEGVCPFCGYEEARGDQCDKCGKLINAVELKKPQCKVCRSCPVVQSSQHLFLDLPKLEKRLEEWLGRTLPGSDWTPNAQFITRSWLRDGLKPRCITRDLKWGTPVPLEGFEDKVFYVWFDATIGYLSITANYTDQWERWWKNPEQVDLYQFMAKDNVPFHSLVFPCSALGAEDNYTLVSHLIATEYLNYEDGKFSKSRGVGVFGDMAQDTGIPADIWRFYLLYIRPEGQDSAFSWTDLLLKNNSELLNNLGNFINRAGMFVSKFFGGYVPEMVLTPDDQRLLAHVTLELQHYHQLLEKVRIRDALRSILTISRHGNQYIQVNEPWKRIKGSEADRQRAGTVTGLAVNIAALLSVMLQPYMPTVSATIQAQLQLPPPACSILLTNFLCTLPAGHQIGTVSPLFQKLENDQIESLRQRFGGGQAKTSPKPAVVETVTTAKPQQIQALMDEVTKQGNIVRELKAQKADKNEVAAEVAKLLDLKKQLAVAEGKPPEAPKGKKKK
**Q.** With B7 as the molecule, how does the “-LogP” value read?
**A.** The value was 1.714.

B8: EHD4 (protein, UniProt Q9H223 1-541, looked up)
EH domain-containing protein 4: MFSWMGRQAGGRERAGGADAVQTVTGGLRSLYLRKVLPLEEAYRFHEFHSPALEDADFENKPMILLVGQYSTGKTTFIRYLLEQDFPGMRIGPEPTTDSFIAVMYGETEGSTPGNALVVDPKKPFRKLSRFGNAFLNRFMCSQLPNQVLKSISVIDSPGILSGEKQRISRGYDFCQVLQWFAERVDRIILLFDAHKLDISDEFSEAIKAFRGQDDKIRVVLNKADQVDTQQLMRVYGALMWSLGKVINTPEVLRVYIGSFWAQPLQNTDNRRLFEAEAQDLFRDIQSLPQKAAVRKLNDLIKRARLAKVHAYIISYLKKEMPSVFGKENKKRELISRLPEIYIQLQREYQISAGDFPEVKAMQEQLENYDFTKFHSLKPKLIEAVDNMLSNKISPLMNLISQEETSTPTQLVQGGAFDGTTEGPFNQGYGEGAKEGADEEEWVVAKDKPVYDELFYTLSPINGKISGVNAKKEMVTSKLPNSVLGKIWKLADCDCDGMLDEEEFALAKHLIKIKLDGYELPSSLPPHLVPPSHRKSLPKAD
**Q.** Which “-LogP” value does the source give for B8 here?
**A.** Its value is 3.322.

B9: TUBB1 (protein, UniProt Q9H4B7 1-451, looked up)
Tubulin beta-1 chain: MREIVHIQIGQCGNQIGAKFWEMIGEEHGIDLAGSDRGASALQLERISVYYNEAYGRKYVPRAVLVDLEPGTMDSIRSSKLGALFQPDSFVHGNSGAGNNWAKGHYTEGAELIENVLEVVRHESESCDCLQGFQIVHSLGGGTGSGMGTLLMNKIREEYPDRIMNSFSVMPSPKVSDTVVEPYNAVLSIHQLIENADACFCIDNEALYDICFRTLKLTTPTYGDLNHLVSLTMSGITTSLRFPGQLNADLRKLAVNMVPFPRLHFFMPGFAPLTAQGSQQYRALSVAELTQQMFDARNTMAACDLRRGRYLTVACIFRGKMSTKEVDQQLLSVQTRNSSCFVEWIPNNVKVAVCDIPPRGLSMAATFIGNNTAIQEIFNRVSEHFSAMFKRKAFVHWYTSEGMDINEFGEAENNIHDLVSEYQQFQDAKAVLEEDEEVTEEAEMEPEDKGH
**Q.** Which “-LogP” value does the source give for B9 here?
**A.** The value was 2.267.
